{"source": "paper PMC11218540", "about": "“Influence of PepF peptidase and sporulation on microcin J25 production in Bacillus subtilis” (Microbiology Spectrum, 2024)", "key": {"[1]": {"system": "proteases (including peptidases)", "conditions": "cited from earlier work", "from_the_text": "Peptidases are important tools in the growth and metabolism of various organisms, including B. subtilis, and they are classified as exopeptidases and endopeptidases depending on the position of peptide bond cleavage ([22]). Different classes of peptidases are associated with important biological pathways. Based on similarity, PepA (yuiE) is predicted to be an aminopeptidase in B. subtilis, but its exact function has not been studied. In E. coli, PepA is a well-defined leucyl aminopeptidase with cysteinyl–glycinase activity, which involves glutathione turnover ([23]). Since glutathione is absen ..."}, "[2]": {"conditions": "at the highest concentration required to inhibit bacterial growth; cited from earlier work", "from_the_text": "Microcins are antimicrobial peptides synthesized by ribosomes and are produced by some Enterobacteriaceae species under the condition of nutrient depletion to kill or inhibit neighboring competitors ([1], [2]). Microcins are divided into two categories, namely, class I and class II, according to their molecular masses. Class I microcins have mass less than 5 kDa, while that of class II microcins is between 5 and 10 kDa ([1]). Microcin J25 (MccJ25) is a class I microcin with a unique lasso-like structure ([3][–][5]) that inhibits or kills target bacteria (primarily Gram-negative Enterobacteriac ..."}, "PepT": {"target": "PepT (Bacillus subtilis, UniProt P55179)", "sequence (P55179 whole entry)": "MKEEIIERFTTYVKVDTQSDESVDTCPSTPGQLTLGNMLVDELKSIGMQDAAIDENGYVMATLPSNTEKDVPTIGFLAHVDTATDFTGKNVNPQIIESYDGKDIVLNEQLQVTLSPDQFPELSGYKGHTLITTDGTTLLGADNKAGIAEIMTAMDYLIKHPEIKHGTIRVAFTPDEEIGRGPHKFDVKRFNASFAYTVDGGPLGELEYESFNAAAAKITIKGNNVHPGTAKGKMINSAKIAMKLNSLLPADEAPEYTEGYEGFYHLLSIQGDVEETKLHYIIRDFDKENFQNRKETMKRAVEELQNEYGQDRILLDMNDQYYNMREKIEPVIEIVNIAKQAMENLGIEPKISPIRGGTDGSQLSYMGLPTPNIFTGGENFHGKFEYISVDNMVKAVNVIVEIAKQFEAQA", "conditions": "8 hours at 37°C, data not shown", "experimental": "(§1) To examine the degradation effect of these three peptidases on the lasso peptide MccJ25, we performed the enzymatic (proteolytic treatment) reaction of MccJ25 with each peptidase enzyme for 8 hours at 37°C and measured the antibacterial activity and concentration of MccJ25 in the incubation products.\n(§2) To investigate whether B. subtilis peptidases play an inhibitory role in the maturation of MccJ25, we synthesized a linear peptide chain consisting of 21 amino acid residues for mimicking the MccJ25 precursor peptide. The linear peptide was incubated with PepA, PepF, and PepT, and the effects of degradation of these three peptidases on the MccJ25 precursor peptide were determined.\n(§3) The MccJ25 lasso peptide was obtained by a reverse-phase solid-phase extraction method, as described in previous studies ([15]). The MccJ25 lasso peptide was examined by antimicrobial activity analysis and UPLC-QqQ mass spectrometry analysis. The antibacterial activity analysis method and UPLC-QqQ mass spectrometry analysis process for MccJ25 have been described in detail in our previous articles ([21]). […] Quantitative analysis of the MccJ25 linear/lasso peptide was performed by ultra-performance liquid chromatography coupled with triple quadrupole mass spectrometry (UPLC-QqQ, Agilent Co., USA) in the positive ion mode. All original images of SDS-PAGE and spot-on-lawn were cropped and brightness adjusted using Fireworks software (Vesion CS 6, Adobe Systems Incorporated).\n(§4) The strains BL21A (BL21-DE3, pET28a-PepA), BL21F (BL21-DE3, pET28a-PepF), and BL21T (BL21-DE3, pET28a-PepT) were used to produce the peptidases PepA, PepF, and PepT, respectively, and BL21O (BL21-DE3, pET28a+) was used as a control strain. […] L-leucine-p-nitroanilide was used as the standard chromogenic substrate for aminopeptidases to identify whether these three peptidases are aminopeptidases in B. subtilis. The mixture of peptidase (10%) and L-leucine-p- nitroanilide (1 mM) was reacted in Tris-HCl buffer solution at pH = 8.5 and 50°C for 10 minutes."}, "PepF": {"target": "T1, PepF (Bacillus subtilis, UniProt O31605)", "T1 sequence (O31605 whole entry, looked up)": "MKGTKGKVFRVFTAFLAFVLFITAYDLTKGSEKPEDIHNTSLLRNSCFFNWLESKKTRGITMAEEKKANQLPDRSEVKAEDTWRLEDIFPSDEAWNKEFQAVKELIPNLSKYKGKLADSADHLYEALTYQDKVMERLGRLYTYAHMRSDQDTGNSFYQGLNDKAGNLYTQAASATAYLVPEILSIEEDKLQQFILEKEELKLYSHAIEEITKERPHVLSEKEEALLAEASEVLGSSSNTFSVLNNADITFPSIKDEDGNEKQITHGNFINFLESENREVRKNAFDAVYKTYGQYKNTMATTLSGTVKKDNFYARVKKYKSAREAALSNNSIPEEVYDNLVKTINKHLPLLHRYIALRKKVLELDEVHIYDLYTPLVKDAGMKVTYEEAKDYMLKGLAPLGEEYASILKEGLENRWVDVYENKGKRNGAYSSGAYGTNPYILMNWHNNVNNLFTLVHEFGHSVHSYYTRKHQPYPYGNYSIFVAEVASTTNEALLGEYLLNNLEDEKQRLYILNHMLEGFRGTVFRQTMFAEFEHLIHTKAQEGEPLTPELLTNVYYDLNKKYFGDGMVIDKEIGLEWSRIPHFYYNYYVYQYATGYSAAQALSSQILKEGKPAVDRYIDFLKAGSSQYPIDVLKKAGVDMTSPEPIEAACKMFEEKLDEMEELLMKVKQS", "conditions": "mature lasso peptide incubated with purified PepF 8 hours at 37°C, compared with non-peptidase-treated", "experimental": "as §1, §2, §3, §4"}, "PepA": {"target": "PepA (Bacillus subtilis, UniProt O32106)", "sequence (O32106 whole entry)": "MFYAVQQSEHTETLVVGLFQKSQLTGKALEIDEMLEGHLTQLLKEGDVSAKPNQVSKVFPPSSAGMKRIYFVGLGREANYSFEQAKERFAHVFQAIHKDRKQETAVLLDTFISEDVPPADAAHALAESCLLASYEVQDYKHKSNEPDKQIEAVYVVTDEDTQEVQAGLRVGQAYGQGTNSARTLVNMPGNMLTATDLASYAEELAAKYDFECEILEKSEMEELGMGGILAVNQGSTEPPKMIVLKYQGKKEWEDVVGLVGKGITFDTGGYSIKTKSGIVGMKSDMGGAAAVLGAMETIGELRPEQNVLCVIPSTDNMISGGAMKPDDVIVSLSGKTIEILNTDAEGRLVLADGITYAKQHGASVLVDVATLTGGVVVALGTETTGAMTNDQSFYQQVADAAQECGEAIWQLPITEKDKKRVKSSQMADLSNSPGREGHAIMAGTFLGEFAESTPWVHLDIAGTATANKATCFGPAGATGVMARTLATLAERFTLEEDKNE", "conditions": "8 hours at 37°C, data not shown", "experimental": "as §1, §2, §3, §4"}, "[3]": {"conditions": "spot-on-lawn assay, S. enteritidis CVCC3377"}}, "note": "Bridges are numbered along the chain shown (N, C = ends). Where no end group is shown, it is not given here.", "data": [{"substance": "microcin J25 (GGAGHVPEYFVGIGTPISFYG; lactam N-8 (inferred); UniProt Q9X2V7 38-58, looked up) [MccJ25]", "values": [{"measurement": "resistance to proteases (including peptidases)", "setting": "[1]", "result": "high resistance"}, {"measurement": "toxicity and hemolysis", "setting": "[2]", "result": "neither toxic nor hemolytic"}, {"measurement": "concentration of mature MccJ25 after treatment with PepT", "setting": "PepT; UPLC-QqQ-MS", "result": "remained unchanged"}, {"measurement": "antibacterial activity of mature MccJ25 after treatment with PepT", "setting": "PepT; [3]", "result": "remained unchanged"}, {"measurement": "concentration of MccJ25 after treatment with PepF", "setting": "PepF; UPLC-QqQ-MS", "result": "unchanged"}, {"measurement": "antibacterial activity of MccJ25 after treatment with PepF", "setting": "PepF; spot-on-lawn assay, indicator S. enteritidis CVCC3377", "result": "unchanged"}, {"measurement": "concentration of mature MccJ25 after treatment with PepA", "setting": "PepA; UPLC-QqQ-MS", "result": "remained unchanged"}, {"measurement": "antibacterial activity of mature MccJ25 after treatment with PepA", "setting": "PepA; [3]", "result": "remained unchanged"}]}]}
